Experimental data: patent publication US20180200331A1, “BST-2 AS A THERAPEUTIC TARGET AND DIAGNOSTIC MARKER FOR BREAST CANCER GROWTH AND METASTASIS” (University of Iowa Research Foundation, priority 2015, published 2018)

Tests used:
[1] = system: MCF-7 cells; experiment: Adhesion to MCF-7 WT monolayers blocked with rBST-2; format: cell-based, human
Procedure: (§1) FIG. 22. […] PKH67Green-labeled shControl (shCTL)- or sh413 (shBST-2)-expressing (A) 4T1 or (B) E0771 cells were allowed to adhere to plates that were coated with 0, 20 or 50 ng of recombinant BST-2 (rBST-2) and fluorescence assessed with a plate reader. (C) Representative confocal images of cells attached to wells coated with increasing concentrations of rBST-2. (D) Quantification of PKH67Green-labeled MCF-7 cells expressing Vector, WT or C3A BST-2 adhered to plates that were coated with 0, 20 or 50 ng of rBST-2. […] Cells that adhered to WT MCF-7 monolayers were quantified and represented as relative fluorescence intensity. Each data point corresponds to six different wells analyzed. Error bars correspond to SEM. Significance was taken at P<0.05* and P<0.01**. n.s=not significant.

[2] = system: BST-2; experiment: Adhesion of cancer cells to plates coated with recombinant BST-2; format: cell-based; conditions: plates coated with 0, 20 or 50 ng rBST-2
Procedure: as §1
Low BST-2 expressing human breast cancer cells (MCF-7) stably expressing WT BST-2 (WT) efficiently binds BST-2 ECD while similar cells stably expressing dimerization mutant BST-2 (C3A) are defective in binding BST-2 ECD. Treatment of BST-2-expressing breast cancer cells with BST-2 ECD blocks cancer cell-to-cancer clustering (FIG. 22).

B1: rBST-2: recombinant extracellular domain (ECD) of BST-2 (protein, UniProt Q10589 49-161, looked up)
extracellular domain: NSEACRDGLRAVMECRNVTHLLQQELTEAQKGFQDVEAQAATCNHTVMALMASLDAEKAQGQKKVEELEGEITTLNHKLQDASAEVERLRRENQVLSVRIADKKYYPSSQDSS
modifications: extracellular domain
BST-2-mediated adhesion of breast cancer cells [1]: prevents BST-2-mediated adhesion of breast cancer cells | binding to BST-2 [2]: binds to BST-2 in vitro
